From the supplement of paper PMC9112550, “Optimization of the antimicrobial peptide Bac7 by deep mutational scanning” (BMC Biology, 2022) come the findings set out here.

The subject of the data set is Escherichia coli TOP10. The experiment in a line: shrunken log2 fold change of peptide-encoding DNA abundance (4.5 h post-induction vs induction); higher = less antimicrobial activity (less host growth inhibition). To be noted: time post-induction: 4.5 h; library: site-saturation at positions 5, 18, 19, 20.
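Note: peptides expressed intracellularly from a pBAD plasmid library in pooled LB shake-flask culture, induced with 0.3% L-arabinose, DNA abundance read by NGS, three biological replicates, DESeq2 with apeglm shrinkage.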

As for RRIRNRPPRLPRPRPRPCFCPRP, the “shrunken log2 fold change” value was -0.337.
RRIRGRPPRLPRPRPRPNEPPRP: the “shrunken log2 fold change” value is 0.154.
Then RRIRQRPPRLPRPRPRPCDPPRP, with -0.0819.
For RRIRMRPPRLPRPRPRPPYDPRP, the “shrunken log2 fold change” value stood at 0.0745.
The figure for RRIRVRPPRLPRPRPRPIVPPRP is -0.349; for RRIRQRPPRLPRPRPRPYDFPRP it is -0.543; for RRIRHRPPRLPRPRPRPEKEPRP it is -0.00451.
Then RRIRMRPPRLPRPRPRPQPYPRP, with -0.00544; and RRIRGRPPRLPRPRPRPHWMPRP, with 0.0496.
Take RRIRDRPPRLPRPRPRPFYNPRP: the “shrunken log2 fold change” value was -0.732.
Then RRIRWRPPRLPRPRPRPYRNPRP, with -0.552; and RRIRGRPPRLPRPRPRPNALPRP, with 0.474.
With RRIRHRPPRLPRPRPRPACFPRP, the “shrunken log2 fold change” value was -0.126.
Then RRIRWRPPRLPRPRPRPWDSPRP, with -0.287; and RRIRRRPPRLPRPRPRPIRIPRP, with -0.106; and RRIRWRPPRLPRPRPRPHRTPRP, with -0.168.
Then RRIRTRPPRLPRPRPRPVEIPRP, with -0.2; and RRIRHRPPRLPRPRPRPLSWPRP, with 0.146; and RRIRARPPRLPRPRPRPNWHPRP, with 0.163.
Then RRIRMRPPRLPRPRPRPDIRPRP, with -0.00649.
On to RRIRIRPPRLPRPRPRPDKGPRP, for which the “shrunken log2 fold change” value was 0.0101.
Then RRIRRRPPRLPRPRPRPKDVPRP, with 0.159.
As for RRIRGRPPRLPRPRPRPPMDPRP, the “shrunken log2 fold change” value was 0.597.
On to RRIRFRPPRLPRPRPRPVKSPRP, for which the “shrunken log2 fold change” value is -0.159.
For the sequence RRIRKRPPRLPRPRPRPQVEPRP, the “shrunken log2 fold change” value is 0.248.
The figure for RRIRGRPPRLPRPRPRPGWFPRP is 0.27; for RRIRARPPRLPRPRPRPNNYPRP it is -0.356.
As to RRIRSRPPRLPRPRPRPQDAPRP, the “shrunken log2 fold change” value stood at 0.0464.
The figure for RRIRRRPPRLPRPRPRPSWDPRP is -0.102.
The figure for RRIRMRPPRLPRPRPRPFKCPRP is -0.0731; for RRIRTRPPRLPRPRPRPGIKPRP it is -0.162.
Then RRIRGRPPRLPRPRPRPAAPPRP, with 1.38; and RRIRRRPPRLPRPRPRPPHFPRP, with 0.897; and RRIRFRPPRLPRPRPRPMWWPRP, with 0.0551.
For RRIRHRPPRLPRPRPRPDKAPRP, the “shrunken log2 fold change” value was -0.468.
Then RRIRPRPPRLPRPRPRPRQMPRP, with 0.184; and RRIRPRPPRLPRPRPRPRPIPRP, with 0.27.
With RRIRKRPPRLPRPRPRPHICPRP, the “shrunken log2 fold change” value is 0.00561.
Consider RRIRCRPPRLPRPRPRPRNYPRP, for which the “shrunken log2 fold change” value is -0.094.
The figure for RRIRPRPPRLPRPRPRPMAGPRP is -0.13.
As to RRIRQRPPRLPRPRPRPTNWPRP, the “shrunken log2 fold change” value came out at 0.146.
For the sequence RRIRTRPPRLPRPRPRPYDIPRP, the “shrunken log2 fold change” value is -0.795.
For RRIRNRPPRLPRPRPRPNKDPRP, the “shrunken log2 fold change” value was -0.0478.
Then RRIRTRPPRLPRPRPRPEIFPRP, with -0.303; and RRIRDRPPRLPRPRPRPDVDPRP, with 0.0482; and RRIRCRPPRLPRPRPRPWPCPRP, with 1.63.
For RRIRFRPPRLPRPRPRPWCTPRP, the “shrunken log2 fold change” value is -0.288.
As for RRIRVRPPRLPRPRPRPMSFPRP, the “shrunken log2 fold change” value is -0.157.
Then RRIRWRPPRLPRPRPRPCFMPRP, with -0.0873.
As to RRIRHRPPRLPRPRPRPLPCPRP, the “shrunken log2 fold change” value is -0.0645.
Take RRIRERPPRLPRPRPRPKHKPRP: the “shrunken log2 fold change” value is -0.344.
The figure for RRIRYRPPRLPRPRPRPVCWPRP is 0.196; for RRIRTRPPRLPRPRPRPDDYPRP it is -0.111.
RRIRHRPPRLPRPRPRPDSNPRP: the “shrunken log2 fold change” value was -0.0814.
The figure for RRIRKRPPRLPRPRPRPMFFPRP is -0.14; for RRIRCRPPRLPRPRPRPFWCPRP it is -0.397.
Then RRIRVRPPRLPRPRPRPLTNPRP, with -0.447.
Then RRIRNRPPRLPRPRPRPGMAPRP, with 0.0313; and RRIRTRPPRLPRPRPRPDFIPRP, with -0.547; and RRIRVRPPRLPRPRPRPRSRPRP, with 0.227.
Regarding RRIRYRPPRLPRPRPRPPDPPRP, the “shrunken log2 fold change” value is 0.179.
Then RRIRIRPPRLPRPRPRPYPCPRP, with -0.028; and RRIRWRPPRLPRPRPRPKWEPRP, with 0.0855.
The figure for RRIRYRPPRLPRPRPRPLFDPRP is 0.802; for RRIRKRPPRLPRPRPRPETEPRP it is 0.0991.
Then RRIRNRPPRLPRPRPRPYLLPRP, with -0.27.
With RRIRCRPPRLPRPRPRPEANPRP, the “shrunken log2 fold change” value came to 0.477.
In the case of RRIRLRPPRLPRPRPRPIWPPRP, the “shrunken log2 fold change” value is 0.356.
In the case of RRIRRRPPRLPRPRPRPKNDPRP, the “shrunken log2 fold change” value came to 0.277.
As for RRIRVRPPRLPRPRPRPSTAPRP, the “shrunken log2 fold change” value is -0.0759.
RRIRMRPPRLPRPRPRPYWQPRP: the “shrunken log2 fold change” value is -0.312.
For the sequence RRIRIRPPRLPRPRPRPFWDPRP, the “shrunken log2 fold change” value is -0.0885.
The figure for RRIRCRPPRLPRPRPRPIKAPRP is 0.0144.
For RRIRRRPPRLPRPRPRPMPTPRP, the “shrunken log2 fold change” value came to 0.178.
As to RRIRLRPPRLPRPRPRPMMPPRP, the “shrunken log2 fold change” value was -0.174.
On to RRIRERPPRLPRPRPRPGAAPRP, for which the “shrunken log2 fold change” value came out at 1.82.
The figure for RRIRDRPPRLPRPRPRPEWWPRP is -0.00197.
Then RRIRYRPPRLPRPRPRPAQKPRP, with -0.0925; and RRIRQRPPRLPRPRPRPMGAPRP, with 0.132.
Then RRIRYRPPRLPRPRPRPVYCPRP, with -0.416.
RRIRYRPPRLPRPRPRPFSLPRP: the “shrunken log2 fold change” value is -1.22.
Then RRIRSRPPRLPRPRPRPGSHPRP, with -0.104; and RRIRDRPPRLPRPRPRPSGLPRP, with 0.284.
On to RRIRVRPPRLPRPRPRPRPNPRP, for which the “shrunken log2 fold change” value turned out to be 0.381.
The figure for RRIRTRPPRLPRPRPRPYCFPRP is -0.301.
In the case of RRIRYRPPRLPRPRPRPYDFPRP, the “shrunken log2 fold change” value is -0.138.
Then RRIRWRPPRLPRPRPRPRFFPRP, with 0.326; and RRIRFRPPRLPRPRPRPKRTPRP, with 0.0846; and RRIRTRPPRLPRPRPRPYYTPRP, with -0.336.
Then RRIRKRPPRLPRPRPRPSKVPRP, with -0.131.
As for RRIRSRPPRLPRPRPRPFMWPRP, the “shrunken log2 fold change” value was -0.165.
Consider RRIRQRPPRLPRPRPRPRWVPRP, for which the “shrunken log2 fold change” value worked out at 0.345.
The figure for RRIRDRPPRLPRPRPRPWQLPRP is 0.0822; for RRIRSRPPRLPRPRPRPVSPPRP it is 0.155; for RRIRHRPPRLPRPRPRPNPDPRP it is -0.0353.
As to RRIRWRPPRLPRPRPRPDQPPRP, the “shrunken log2 fold change” value was 0.234.
RRIRHRPPRLPRPRPRPHQDPRP: the “shrunken log2 fold change” value was -0.249.
Turning to RRIRRRPPRLPRPRPRPCAYPRP, the “shrunken log2 fold change” value worked out at 0.0425.
In the case of RRIRNRPPRLPRPRPRPYFHPRP, the “shrunken log2 fold change” value was -0.474.
Then RRIRARPPRLPRPRPRPINMPRP, with -0.346; and RRIRFRPPRLPRPRPRPTLFPRP, with 0.243; and RRIRRRPPRLPRPRPRPFMWPRP, with 0.00755.
With RRIRGRPPRLPRPRPRPRSRPRP, the “shrunken log2 fold change” value worked out at 0.368.
For RRIRGRPPRLPRPRPRPEQWPRP, the “shrunken log2 fold change” value worked out at 0.346.
Then RRIRRRPPRLPRPRPRPDVIPRP, with -0.068; and RRIRQRPPRLPRPRPRPKLNPRP, with -0.165; and RRIRARPPRLPRPRPRPWVSPRP, with -0.0266.
Then RRIRKRPPRLPRPRPRPKAQPRP, with 0.313; and RRIRRRPPRLPRPRPRPQNIPRP, with -0.33.
In the case of RRIRARPPRLPRPRPRPWDHPRP, the “shrunken log2 fold change” value is -0.00959.
In the case of RRIRNRPPRLPRPRPRPFLCPRP, the “shrunken log2 fold change” value was -0.966.
The figure for RRIRSRPPRLPRPRPRPRHDPRP is 0.23; for RRIRQRPPRLPRPRPRPGWFPRP it is 0.209.
In the case of RRIRERPPRLPRPRPRPLQHPRP, the “shrunken log2 fold change” value came out at 0.159.
Then RRIRGRPPRLPRPRPRPKIGPRP, with 0.752; and RRIRIRPPRLPRPRPRPGLRPRP, with -0.0223.
Then RRIRPRPPRLPRPRPRPGSNPRP, with -0.082; and RRIRVRPPRLPRPRPRPSEEPRP, with 0.00143.
RRIRNRPPRLPRPRPRPGWMPRP: the “shrunken log2 fold change” value turned out to be 0.142.
The figure for RRIRRRPPRLPRPRPRPSCRPRP is 0.0338; for RRIRVRPPRLPRPRPRPCRDPRP it is -0.4.
Then RRIRFRPPRLPRPRPRPAIGPRP, with -0.0142; and RRIRMRPPRLPRPRPRPWCAPRP, with 0.204; and RRIRWRPPRLPRPRPRPVPPPRP, with 0.372.
Then RRIRPRPPRLPRPRPRPKEMPRP, with -0.106.
